Laboratory results as given in the RNAGym collection of RNA variant scans (doi:10.7554/elife.80360).

B1: CPEB3 Ribozyme (parent)
chain: GGGGGCCACAGCAGAAGCGUUCACGUCGCGGCCCCUGUCAGAUUCUGGUGAAUCUGCGAAUUCUGCUGU

Variants of: B1
Assay: self-cleavage, relative activity (ratio to wild type); higher = more cleavage; co-transcriptional

Variant | self-cleavage
GGGGGCCACAGCAGAAGCGUUCACGUCCCGGCCCCUGUCAGAUUCUGGUGAAUCUGCGAAUUCGGCUGU [G28C U64G] | 0.116
GGGGGCCACAGCAGAAGCGUUCACGUCCCGGCCCCUGUCAGAUUCUGGUGAAUCUGCGAAUUCAGCUGU [G28C U64A] | 0.222
GGGGGCCACAGCAGAAGCGUUCACGUCCCGGCCCCUCUCAGAUUCUGGUGAAUCUGCGAAUUCUGCUGU [G28C G37C] | 0.186
GGGGGCCACAGCAGAAGCGUUCACGUCCCGGCCCCUUUCAGAUUCUGGUGAAUCUGCGAAUUCUGCUGU [G28C G37U] | 0.129
GGGGGCCACAGCAGAAGCGUUCACGUCCCGGCCCCUAUCAGAUUCUGGUGAAUCUGCGAAUUCUGCUGU [G28C G37A] | 0.117
GGGGGCCACAGCAGAAGCGUUCACGUCCCGGGCCCUGUCAGAUUCUGGUGAAUCUGCGAAUUCUGCUGU [G28C C32G] | 0.168
GGGGGCCACAGCAGAAGCGUUCACGUCCCGGUCCCUGUCAGAUUCUGGUGAAUCUGCGAAUUCUGCUGU [G28C C32U] | 0.23
GGGGGCCACAGCAGAAGCGUUCACGUCCCGGCCCCUGUCAGAUUCUGGUGAAUCUGCGAAUUUUGCUGU [G28C C63U] | 0.192
GGGGGCCACAGCAGAAGCGUUCACGUCCCGGCCCCUGUCAGAUUGUGGUGAAUCUGCGAAUUCUGCUGU [G28C C45G] | 0.208
GGGGGCCACAGCAGAAGCGUUCACGUCUCGGCCCCUGUCAGAUUCUGGUGACUCUGCGAAUUCUGCUGU [G28U A52C] | 0.132
GGGGGCCACAGCAGAAGCGUUCACGUCUCGGCCCCUGUCAGAUUCUGGUGAUUCUGCGAAUUCUGCUGU [G28U A52U] | 0.198
GGGGGCCACAGCAGAAGCGUUCACGUCCCGGCCCCUGUCAGAUUCUGGUGAAUCUGCGAAUUCUGUUGU [G28C C66U] | 0.211
GGGGGCCACAGCAGAAGCGUUCACGUCCCGGCCCCUGUCAGAUUCUGGUGAAUCUGCGAAUUCUGAUGU [G28C C66A] | 0.163
GGGGGCCACAGCAGAAGCGUUCACGUCCCGGCCCCUGUCAGAUUCUGGUGAAUCUGCGAAUUCUGGUGU [G28C C66G] | 0.141
GGGGGCCACAGCAGAAGCGUUCACGUCUCGGCCCCUGUCGGAUUCUGGUGAAUCUGCGAAUUCUGCUGU [G28U A40G] | 0.232
GGGGGCCACAGCAGAAGCGUUCACGUCUCGGCCCCUGUCCGAUUCUGGUGAAUCUGCGAAUUCUGCUGU [G28U A40C] | 0.225
GGGGGCCACAGCAGAAGCGUUCACGUCCCGGCCCCUGUCAGAUUCUGGUGAAUCUGCGAAUUCUGCCGU [G28C U67C] | 0.168
GGGGGCCACAGCAGAAGCGUUCACGUCCCGGCCCCUGUCAGAUUCUGGUGAAUCUGCGAAUUCUGCGGU [G28C U67G] | 0.295
GGGGGCCACAGCAGAAGCGUUCACGUCCCGGCCCCUGUCAGAUUCUGGUGAAUCUGUGAAUUCUGCUGU [G28C C57U] | 0.23
GGGGGCCACAGCAGAAGCGUUCACGUCCCGGCCCCUGUCAGAUUCUGGUGAAUCUGAGAAUUCUGCUGU [G28C C57A] | 0.207
GGGGGCCACAGCAGAAGCGUUCACGUCCCGGCCCCUGUCAGAUUCUGGUGAAUCUGGGAAUUCUGCUGU [G28C C57G] | 0.191
GGGGGCCACAGCAGAAGCGUUCACGUCCCGGCCCCUGUGAGAUUCUGGUGAAUCUGCGAAUUCUGCUGU [G28C C39G] | 0.198
GGGGGCCACAGCAGAAGCGUUCACGUCUCGGCCCCUGUCAGAUUCUGGUGAAUCUGCGAGUUCUGCUGU [G28U A60G] | 0.214
GGGGGCCACAGCAGAAGCGUUCACGUCUCGGCCCCUGUCAGAUUCUGGUGAAUCUGCGACUUCUGCUGU [G28U A60C] | 0.226
GGGGGCCACAGCAGAAGCGUUCACGUCCCGGCCCCUGUCAGAUUCUGGUGAAUCUGCGAAUUCUGCUUU [G28C G68U] | 0.221
GGGGGCCACAGCAGAAGCGUUCACGUCCCGGCCCCUGUCAGAUUCUGGUGAAUCUGCGAAUUCUGCUAU [G28C G68A] | 0.164

Variant | self-cleavage
GGGGGCCACAGCAGAAGCGUUCACGUCCCGGCCCCUGUCAGAUACUGGUGAAUCUGCGAAUUCUGCUGU [G28C U44A] | 0.157
GGGGGCCACAGCAGAAGCGUUCACGUCCCGGCCCCUGUCAGAUCCUGGUGAAUCUGCGAAUUCUGCUGU [G28C U44C] | 0.223
GGGGGCCACAGCAGAAGCGUUCACGUCCCGGCCCCUGUCAGAUUCUGGUGAAUCUGCGAAUUCUCCUGU [G28C G65C] | 0.19
GGGGGCCACAGCAGAAGCGUUCACGUCCCGGCCCCUGUCAGAUUCUGGUGAAUCUGCGAAUUCUACUGU [G28C G65A] | 0.161
GGGGGCCACAGCAGAAGCGUUCACGUCCCGCCCCCUGUCAGAUUCUGGUGAAUCUGCGAAUUCUGCUGU [G28C G31C] | 0.172
GGGGGCCACAGCAGAAGCGUUCACGUCCCGACCCCUGUCAGAUUCUGGUGAAUCUGCGAAUUCUGCUGU [G28C G31A] | 0.139
GGGGGCCACAGCAGAAGCGUUCACGUCCCGUCCCCUGUCAGAUUCUGGUGAAUCUGCGAAUUCUGCUGU [G28C G31U] | 0.21
GGGGGCCACAGCAGAAGCGUUCACGUCCCGGCCCCUGUCAGAUUCUUGUGAAUCUGCGAAUUCUGCUGU [G28C G47U] | 0.167
GGGGGCCACAGCAGAAGCGUUCACGUCCCGGCCCCUGUCAGAUUCUAGUGAAUCUGCGAAUUCUGCUGU [G28C G47A] | 0.187
GGGGGCCACAGCAGAAGCGUUCACGUCCCGGCCCCUGUCAGAUUCUCGUGAAUCUGCGAAUUCUGCUGU [G28C G47C] | 0.258
GGGGGCCACAGCAGAAGCGUUCACGUCCCGGCCCCUGUCAGAUUCUGGUGAAACUGCGAAUUCUGCUGU [G28C U53A] | 0.156
GGGGGCCACAGCAGAAGCGUUCACGUCCCGGCCCCUGUCAGAUUCUGGUGAAGCUGCGAAUUCUGCUGU [G28C U53G] | 0.196
GGGGGCCACAGCAGAAGCGUUCACGUCCCGGCCCCUGUCAGAUUCUGGUGAACCUGCGAAUUCUGCUGU [G28C U53C] | 0.145
GGGGGCCACAGCAGAAGCGUUCACGUCCCGGCCUCUGUCAGAUUCUGGUGAAUCUGCGAAUUCUGCUGU [G28C C34U] | 0.136
GGGGGCCACAGCAGAAGCGUUCACGUCCCGGCCGCUGUCAGAUUCUGGUGAAUCUGCGAAUUCUGCUGU [G28C C34G] | 0.245
GGGGGCCACAGCAGAAGCGUUCACGUCUUGGCCCCUGUCAGAUUCUGGUGAAUCUGCGAAUUCUGCUGU [G28U C29U] | 0.174
GGGGGCCACAGCAGAAGCGUUCACGUCUAGGCCCCUGUCAGAUUCUGGUGAAUCUGCGAAUUCUGCUGU [G28U C29A] | 0.142
GGGGGCCACAGCAGAAGCGUUCACGUCUCGGCCCCUGUCAGGUUCUGGUGAAUCUGCGAAUUCUGCUGU [G28U A42G] | 0.112
GGGGGCCACAGCAGAAGCGUUCACGUCUCGGCCCCUGUCAGUUUCUGGUGAAUCUGCGAAUUCUGCUGU [G28U A42U] | 0.149
GGGGGCCACAGCAGAAGCGUUCACGUCCCGGCCCCUGUCAGAUUCUGGUGAAUCUUCGAAUUCUGCUGU [G28C G56U] | 0.17
GGGGGCCACAGCAGAAGCGUUCACGUCCCGGCCCCUGUCAGAUUCUGGCGAAUCUGCGAAUUCUGCUGU [G28C U49C] | 0.145
GGGGGCCACAGCAGAAGCGUUCACGUCCCGGCCCCUGUCAGAUUCUGGUGAAUCUGCGAACUCUGCUGU [G28C U61C] | 0.134
GGGGGCCACAGCAGAAGCGUUCACGUCCCGGCCCCUGUCAGACUCUGGUGAAUCUGCGAAUUCUGCUGU [G28C U43C] | 0.141
GGGGGCCACAGCAGAAGCGUUCACGUCCCGGCCCCUGUCAGAAUCUGGUGAAUCUGCGAAUUCUGCUGU [G28C U43A] | 0.109
GGGGGCCACAGCAGAAGCGUUCACGUCCCGGCCCCUGUCAGAGUCUGGUGAAUCUGCGAAUUCUGCUGU [G28C U43G] | 0.255
GGGGGCCACAGCAGAAGCGUUCACGUCCCGGCCCCUGUCAGAUUCUGGUGAAUCUGCGAAUUCUGCUGA [G28C U69A] | 0.18

Variant | self-cleavage
GGGGGCCACAGCAGAAGCGUUCACGUCCCGGCCCAUGUCAGAUUCUGGUGAAUCUGCGAAUUCUGCUGU [G28C C35A] | 0.176
GGGGGCCACAGCAGAAGCGUUCACGUCCCGGCCCUUGUCAGAUUCUGGUGAAUCUGCGAAUUCUGCUGU [G28C C35U] | 0.178
GGGGGCCACAGCAGAAGCGUUCACGUCUCGGCCCCUGUCAGAUUCUGGUGCAUCUGCGAAUUCUGCUGU [G28U A51C] | 0.157
GGGGGCCACAGCAGAAGCGUUCACGUCUCGGCCCCUGUCAGAUUCUGGUGGAUCUGCGAAUUCUGCUGU [G28U A51G] | 0.196
GGGGGCCACAGCAGAAGCGUUCACGUCCCGGCUCCUGUCAGAUUCUGGUGAAUCUGCGAAUUCUGCUGU [G28C C33U] | 0.165
GGGGGCCACAGCAGAAGCGUUCACGUCCCGGCACCUGUCAGAUUCUGGUGAAUCUGCGAAUUCUGCUGU [G28C C33A] | 0.115
GGGGGCCACAGCAGAAGCGUUCACGUCCCGGCCCCUGCCAGAUUCUGGUGAAUCUGCGAAUUCUGCUGU [G28C U38C] | 0.199
GGGGGCCACAGCAGAAGCGUUCACGUCCCGGCCCCUGUCAGAUUCUGGUGAAUCUGCGAAUACUGCUGU [G28C U62A] | 0.194
GGGGGCCACAGCAGAAGCGUUCACGUCCCGGCCCCUGUCAGAUUCUGGUGAAUCUGCGAAUCCUGCUGU [G28C U62C] | 0.136
GGGGGCCACAGCAGAAGCGUUCACGUCCCGGCCCCUGUCAGAUUCUGGUGAAUCCGCGAAUUCUGCUGU [G28C U55C] | 0.162
GGGGGCCACAGCAGAAGCGUUCACGUCCCGGCCCCUGUCAGAUUCUGGUGAAUCGGCGAAUUCUGCUGU [G28C U55G] | 0.117
GGGGGCCACAGCAGAAGCGUUCACGUCCCGGCCCCAGUCAGAUUCUGGUGAAUCUGCGAAUUCUGCUGU [G28C U36A] | 0.162
GGGGGCCACAGCAGAAGCGUUCACGUCCCGGCCCCCGUCAGAUUCUGGUGAAUCUGCGAAUUCUGCUGU [G28C U36C] | 0.147
GGGGGCCACAGCAGAAGCGUUCACGUCCCGGCCCCGGUCAGAUUCUGGUGAAUCUGCGAAUUCUGCUGU [G28C U36G] | 0.189
GGGGGCCACAGCAGAAGCGUUCACGUCUCGGCCCCUGUCAGAUUCUGGUGAAUCUGCGUAUUCUGCUGU [G28U A59U] | 0.16
GGGGGCCACAGCAGAAGCGUUCACGUCUCGGCCCCUGUCAGAUUCUGGUGAAUCUGCGGAUUCUGCUGU [G28U A59G] | 0.23
GGGGGCCACAGCAGAAGCGUUCACGUCCCGGCCCCUGUCAGAUUCUGAUGAAUCUGCGAAUUCUGCUGU [G28C G48A] | 0.195
GGGGGCCACAGCAGAAGCGUUCACGUCCCGGCCCCUGUCAGAUUCUGUUGAAUCUGCGAAUUCUGCUGU [G28C G48U] | 0.202
GGGGGCCACAGCAGAAGCGUUCACGUCCCAGCCCCUGUCAGAUUCUGGUGAAUCUGCGAAUUCUGCUGU [G28C G30A] | 0.22
GGGGGCCACAGCAGAAGCGUUCACGUCCCCGCCCCUGUCAGAUUCUGGUGAAUCUGCGAAUUCUGCUGU [G28C G30C] | 0.143
GGGGGCCACAGCAGAAGCGUUCACGUCCCGGCCCCUGUCAGAUUCUGGUGAAUGUGCGAAUUCUGCUGU [G28C C54G] | 0.155
GGGGGCCACAGCAGAAGCGUUCACGUCCCGGCCCCUGUCAGAUUCUGGUGAAUUUGCGAAUUCUGCUGU [G28C C54U] | 0.218
GGGGGCCACAGCAGAAGCGUUCACGUCCCGGCCCCUGUCAGAUUCUGGUGAAUCUGCCAAUUCUGCUGU [G28C G58C] | 0.158
GGGGGCCACAGCAGAAGCGUUCACGUCCCGGCCCCUGUCAUAUUCUGGUGAAUCUGCGAAUUCUGCUGU [G28C G41U] | 0.152
GGGGGCCACAGCAGAAGCGUUCACGUCCCGGCCCCUGUCAAAUUCUGGUGAAUCUGCGAAUUCUGCUGU [G28C G41A] | 0.201
GGGGGCCACAGCAGAAGCGUUCACGUCCCGGCCCCUGUCACAUUCUGGUGAAUCUGCGAAUUCUGCUGU [G28C G41C] | 0.178
